The values that follow come from doi:10.1101/2022.02.07.479471 (bioRxiv, 2022).

In this assay the target is SARS-CoV-2 nsp12 (RNA-dependent RNA polymerase with N-terminal NiRAN domain) (SARS-CoV-2, UniProt P0DTD1). Put plainly: cryo-EM structure.

B1: SARS-CoV-2 nsp9 with native N-terminus (natural protein)
chain: NNELSPVALRQMSCAAGTTQTACTDDNALAYYNTTKGGRFVLALLSDLQDLKWARFPKSDGTGTIYTELEPPCRFVTDTPKGPKVKYLYFIKGLNNLNRGMVLGSLAATVRLQ
In the case of B1, the binding result is reported as “binds”.
